From paper PMC5673899, “Structural basis for receptor recognition of pollen tube attraction peptides” (Nature Communications, 2017)
Entries after “also recorded” stand apart in the source; their conditions may differ.

Legend:
[1] = target: T1, AtPRK6^LRR, extracellular LRR domain of AtPRK6 (residues 1-262) (Arabidopsis thaliana, UniProt Q3E991 27-262); assay: ITC
T1 chain: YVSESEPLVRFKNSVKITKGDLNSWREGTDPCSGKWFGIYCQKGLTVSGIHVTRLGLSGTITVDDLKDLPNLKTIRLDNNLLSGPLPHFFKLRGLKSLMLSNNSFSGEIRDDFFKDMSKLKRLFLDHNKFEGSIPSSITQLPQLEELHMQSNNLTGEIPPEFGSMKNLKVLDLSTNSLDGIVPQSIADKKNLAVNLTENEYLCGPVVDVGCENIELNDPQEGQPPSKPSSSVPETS

[2] = target: T2, AtPRK6^LRR, extracellular LRR domain of AtPRK6 (residues 1-262) (Arabidopsis thaliana, UniProt Q3E991 27-262); assay: ITC; ITC200, 25 °C, 200 mM HEPES pH 7.0, 100 mM NaCl; about 0.9 mM AtLURE1.2 injected (20 x 2 μl) into 0.08 mM LRR protein in the cell; settings: both partners purified
T2 construct: signal peptide in the construct; leucine-rich repeat receptor kinase PRK6 of Arabidopsis thaliana, extracellular LRR domain, residues 1-262; Monomer by gel filtration; likely glycosylated (apparent 34 kDa); source: High Five insect cells (baculovirus), secreted, purified (Ni-NTA, size-exclusion chromatography); also co-expressed with AtLURE1 peptides; not shown: His6, C-terminal, kept
T2 sequence (looked up): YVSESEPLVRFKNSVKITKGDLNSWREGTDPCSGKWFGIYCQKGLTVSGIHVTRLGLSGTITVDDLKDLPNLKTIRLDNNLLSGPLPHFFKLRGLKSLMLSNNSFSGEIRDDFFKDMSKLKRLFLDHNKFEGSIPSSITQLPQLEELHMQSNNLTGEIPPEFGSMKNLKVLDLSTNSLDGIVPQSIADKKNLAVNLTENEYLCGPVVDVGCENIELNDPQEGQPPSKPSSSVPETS

[3] = target: T3, AtPRK6^LRR N239A (residues 1-262) (Arabidopsis thaliana, UniProt Q3E991 27-262, N239A); assay: pull-down; His-tagged LRR protein mixed with excess AtLURE1.2 peptide and held on Ni-NTA resin, on ice 30 min; washed five times with 25 mM Tris pH 8.0, 150 mM NaCl, 15 mM imidazole; eluted with 250 mM imidazole; SDS-PAGE, Coomassie; settings: both partners purified
T3 construct: signal peptide in the construct; PRK6 of Arabidopsis thaliana, extracellular LRR domain, residues 1-262, with N239A; also called N239A mutant of PRK6; source: High Five insect cells (baculovirus), secreted, purified as AtPRK6^LRR; not shown: His6, C-terminal, kept
T3 sequence (looked up): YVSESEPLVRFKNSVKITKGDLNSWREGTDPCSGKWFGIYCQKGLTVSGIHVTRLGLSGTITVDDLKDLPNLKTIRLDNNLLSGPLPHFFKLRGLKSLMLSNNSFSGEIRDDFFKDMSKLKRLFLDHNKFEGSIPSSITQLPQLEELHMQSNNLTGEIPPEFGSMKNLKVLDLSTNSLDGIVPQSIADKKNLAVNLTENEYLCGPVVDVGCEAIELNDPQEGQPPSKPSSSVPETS

[4] = tested on: semi-in-vivo pollen tubes; assay: Gelatin-beads assay, wild-type semi-in-vivo pollen tubes; format: cell-based, Arabidopsis; settings: for pollen tube attraction activity (in words): Tukey−Kramer test, P < 0.05
Method: (§1) Attraction activities of mutant AtLURE1.2 peptides were examined for semi-in-vivo pollen tubes growing through cut, pollinated pistils by gelatin-beads assay and wavy assay, [20]. For the gelatin-beads assay, pollen tubes were grown on solid pollen germination medium poured into a mold made with 1-mm thick silicone rubber and cover glasses. After hand-pollination, the topside cover glass was removed and the medium was covered with hydrated silicone oil (KF-96–100CS; Shin-Etsu). Attraction of pollen tubes toward the peptide was evaluated using AtLURE1 peptide containing gelatine beads under an inverted microscope (IX71, Olympus) equipped with a micro-manipulator (Narishige). For the AtLURE1-responsive wavy assay, the purified AtLURE1.2 peptide was added to solid pollen germination medium, which was melted at 70 °C and then cooled to a certain degree. The mixture was mixed by vortexing and poured into the mold. Pollen tubes of each genotype were grown through cut styles, as mentioned above. Each peptide (25 μM in 10 mM Bis-Tris (pH 6.0) and 100 mM NaCl) was diluted to 250 nM by cultivation medium in both assays. To examine reactivity of PRK6 mutants to AtLURE1.2, constructs for PRK6 mutants, D234A, N239A, and ΔN239I240, were generated by site-directed mutagenesis from a wild-type PRK6 vector, pPZP221-pPRK6::PRK6-mRuby2 (ref. [20]). Wild-type and mutant PRK6 constructs were introduced into prk6–1 plant. After transformants were selected by the same criteria as previously, beads assay and wavy assay were performed in several T1 lines and single T2 line, respectively, for each genotype using 250 nM wild-type AtLURE1.2 peptide.

AtPRK6^LRR = assay: In vitro pull-down with AtPRK6^LRR; format: binding, Arabidopsis thaliana
Description: The genes of AtPRK3 ^LRR (residues 1–241), AtPRK4 ^LRR (residues 1–277), AtPRK5 ^LRR (residues 1–279), AtPRK6 ^LRR (residues 1–262), MIK1 ^LRR (residues 1–633), MIK2 ^LRR (residues 1–707) were amplified from Arabidopsis cDNA library by PCR and cloned into pFastBac-1 vector with a C-terminal 6 × His-tag. Their identities were confirmed by sequencing. The mature form of AtLURE1.1 (residues 20–94), AtLURE1.2 (residues 20–90), AtLURE1.3 (residues 21–91), and AtLURE1.4 (residues 20–90) were cloned into pFastBac-1 vector, with a modified N-terminal hemolin signal peptide and 6 × His-SUMO tag. Point mutation constructs were generated by QuickChange Site-Directed Mutagenesis Kit (Strategene). All the proteins were expressed using the Bac-to-Bac baculovirus expression system (Invitrogen) in High Five cells at 22 °C. One liter of High Five cells (2.0 × 10^6 cells mL^−1) cultured in the medium from Expression Systems was infected with 25 ml recombinant baculovirus and the media was collected after 72 h of infection. Secreted LRR proteins were purified using Ni-NTA (Novagen) and size-exclusion chromatography (Hiload 200, GE Healthcare) in buffer containing 10 mM Bis-Tris pH 6.0 and 100 mM NaCl. The His-SUMO tag of the AtLURE proteins was removed by Prescission Protease at 4 °C overnight in buffer containing 25 mM Tris pH 8.0 and 150 mM NaCl. All AtLURE proteins were further cleaned by size-exclusion chromatography (Hiload 200, GE Healthcare). For co-expression of AtPRK6^LRR and AtLURE1, one liter of High Five cells were co-infected with 20 and 30 ml recombinant baculovirus of AtPRK6^LRR and AtLURE1, respectively. Secreted AtPRK6^LRR-AtLURE1 complexes were processed with Prescission Protease digestion and then purified as described above. Expression and purification procedures of all the mutants were essentially the same as those of AtPRK6^LRR and AtLURE1.2.
The purified His-tagged ectodomains of AtPRK proteins and MIK1, 2 were used to pull-down the AtLURE1.2 peptide. […] All the eluted samples were analyzed by SDS-PAGE and visualized by Coomassie blue staining. […]

[5] = tested on: semi-in-vivo pollen tubes (wild type); assay: AtLURE-responsive wavy assay, wild-type pollen tubes; format: cell-based, Arabidopsis; settings: 250 nM peptide in solid pollen germination medium
Method: as §1, with “To examine reactivity of PRK6 mutants to AtLURE1.2, constructs for PRK6 mutants, D234A, N239A, and ΔN239I240, were generated by site-directed mutagenesis from a wild-type PRK6 vector, pPZP221-pPRK6::PRK6-mRuby2 (ref. [20]). Wild-type and mutant PRK6 constructs were introduced into prk6–1 plant. After transformants were selected by the same criteria as previously, beads assay and wavy assay were performed in several T1 lines and single T2 line, respectively, for each genotype using 250 nM wild-type AtLURE1.2 peptide.” left out
pollen tubes. Fluorescence is from mRuby2 fused to the C-terminal of PRK6 receptors, showing that all of mutant PRK6 receptors localize normally to the plasma membrane of the pollen tube tip. […]

[6] = target: T2, AtPRK6^LRR, extracellular LRR domain of …; assay: pull-down; His-tagged LRR protein mixed with excess AtLURE1.2 peptide and held on Ni-NTA resin, on ice 30 min; washed five times with 25 mM Tris pH 8.0, 150 mM NaCl, 15 mM imidazole; eluted with 250 mM imidazole; SDS-PAGE, Coomassie; settings: both partners purified
[7] = gelatin beads containing 250 nM peptide

B1: AtLURE1.2, mature form (residues 20-90) (peptide, UniProt Q4VP08 20-90, looked up)
chain: TLINGSSDEERTYSFSPTTSPFDPRSLNQELKIGRIGYCFDCARACMRRGKYIRTCSFERKLCRCSISDIK
notes: AtLURE1.2, defensin-like cysteine-rich peptide of Arabidopsis thaliana, mature form, residues 20-90; Cloned in pFastBac-1 behind a modified N-terminal hemolin signal peptide and a 6xHis-SUMO tag; Likely glycosylated (apparent 14 kDa); also called AtLURE1.2 peptide; source: also co-expressed with AtPRK6^LRR for the crystallised complex; not shown: His6, N-terminal, cleaved; SUMO, N-terminal, …
For B1, the Ka [1] was 321000 M⁻¹, the Kd [2] was roughly 3.1 µM and the binding result [3] was “binds”.

B2: R68A: R68A mutant AtLURE1.2 peptide (protein, UniProt Q4VP08 20-90, looked up, variant R68A)
Protein LURE 1.2: TLINGSSDEERTYSFSPTTSPFDPRSLNQELKIGRIGYCFDCARACMRAGKYIRTCSFERKLCRCSISDIK
With B2 the “pollen tube attraction activity (in words)” value [4, 7] was “little effect”.

B3: R79A: R79A mutant AtLURE1.2 peptide (protein, UniProt Q4VP08 20-90, looked up, variant R79A)
Protein LURE 1.2: TLINGSSDEERTYSFSPTTSPFDPRSLNQELKIGRIGYCFDCARACMRRGKYIRTCSFEAKLCRCSISDIK
With B3 the “pollen tube attraction activity (in words)” value [4, 7] was “little effect”.

B4: R73A: R73A mutant AtLURE1.2 peptide (protein, UniProt Q4VP08 20-90, looked up, variant R73A)
Protein LURE 1.2: TLINGSSDEERTYSFSPTTSPFDPRSLNQELKIGRIGYCFDCARACMRRGKYIATCSFERKLCRCSISDIK
B4 was tested, and the “pollen tube attraction activity (in words)” value [4, 7] was “little effect”.

B5: R83A: R83A AtLURE1.2 peptide, Arg83 substituted with alanine (protein)
chain: TLINGSSDEERTYSFSPTTSPFDPRSLNQELKIGRIGYCFDCARACMRRGKYIRTCSFERKLCACSISDIK
modifications: left off: His6, N-terminal, cleaved | SUMO, N-terminal, cleaved
notes: R83A AtLURE1.2 peptide, Arg83 substituted with alanine
With B5 the “interaction in pull-down assay” value (AtPRK6^LRR; Ni-NTA, excess AtLURE1.2, on ice 30 min, washed five times, 25 mM Tris pH 8.0, 150 mM NaCl, SDS-PAGE, Coomassie blue, repeated at least three times) was “compromised but not abolished; also recorded: compromised”, the “interaction in pull-down assay, less harsh washing” value (AtPRK6^LRR; once or twice washing, peer review file) was “much less than the wild type AtLURE1.2” and the “pollen tube attraction activity (in words)” value [4, 7] was “significantly lower than those in other four peptides”. The “attraction frequency of pollen tubes” value ([4]; gelatin beads containing 250 nM peptide, mean ± SD, 9–16 pollen tubes per assay, 3−5 assays) was 56 ± 11%, the “pollen tubes not attracted to the bead” value ([4]; gelatin beads, 250 nM peptide) was “more than 44%” and the “wavy pollen tube response” value [5] was “decreased; also recorded: greatly reduced the numbers of wavy pollen tubes”.

B6: AtLURE1.2 R83A (residues 20-90) (peptide, UniProt Q4VP08 20-90, looked up)
chain: TLINGSSDEERTYSFSPTTSPFDPRSLNQELKIGRIGYCFDCARACMRRGKYIRTCSFERKLCACSISDIK
notes: AtLURE1.2 of Arabidopsis thaliana, mature form, residues 20-90, with R83A; also called R83A AtLURE1.2; mutant peptide R83A; source: High Five insect cells (baculovirus), secreted, purified as AtLURE1.2; not shown: His6, N-terminal, cleaved; SUMO, N-terminal, cleaved
B6: binds [6].
